Laboratory results: patent publication US6475806

Biological target: antibody to hCG
Assay: competition: unlabelled hCG displacing hCG-I^125 from the antibody to hCG

Substance “hCG (from UniProt P01215 25-116; P0DN86 21-165) (ligand)” has an IC50 of 10 nM.
